Here are results for one protein from paper PMC2739586 (Journal of molecular biology, 2009).

The data set deals with the molecule itself. Briefly: crystal structure.

As a reminder, the stoichiometry N is a count of units in the complex or per binding partner.

B1: Miner1 (C92S), soluble region of human Miner1 (amino acids 57-135) (domain or fragment)
chain: GSHMRPFLPKKKQQKDSLINLKIQKENPKVVNEINIEDLSLTKAAYCRCWRSKTFPACDGSHNKHNELTGDNVGPLILKKKEV
B1: the “stoichiometry N” value is 2.
